# Test results: US6528633
# Columns and labels:
# [1] = tested on: clam E3-C/cyclosome complex, activated, partially purified
# [2] = tested on: non-specific ubiquitin-protein ligase (E3) from clam oocyte Fraction 1A
# Chain of recombinant human Ubc4 homolog, UbcH5 (chain, as listed by the source): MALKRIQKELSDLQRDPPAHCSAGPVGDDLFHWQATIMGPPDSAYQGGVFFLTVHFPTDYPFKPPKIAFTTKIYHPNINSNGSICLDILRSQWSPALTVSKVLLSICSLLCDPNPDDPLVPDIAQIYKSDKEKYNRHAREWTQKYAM
substance,measurement,setting,value
"recombinant human Ubc4 homolog, UbcH5",stimulation of cyclin-ubiquitin ligation,[1],"UbcH5 caused some stimulation of cyclin-ubiquitin ligation by the clam E3-C/cyclosome complex, but the amount of conjugates formed and their size ... were much lower than those obtained with the recombinant clam protein"
same,ligation of 125I-ubiquitin to high molecular weight conjugates,[2],UbcH5 strongly stimulated the ligation of 125I-ubiquitin to high molecular weight conjugates in the presence of non-specific E3 from clam oocytes
